Data on nine molecules can be found in article PMC7545189, “Structural characterization of the ICOS/ICOS-L immune complex reveals high molecular mimicry by therapeutic antibodies” (Nature Communications, 2020).

Sequences and labels used below:
T1: human ICOS ectodomain N110Q, His-tagged, immobilised for STIM003 binding (human, UniProt Q9Y6W8 21-138, N110Q)
T1 sequence: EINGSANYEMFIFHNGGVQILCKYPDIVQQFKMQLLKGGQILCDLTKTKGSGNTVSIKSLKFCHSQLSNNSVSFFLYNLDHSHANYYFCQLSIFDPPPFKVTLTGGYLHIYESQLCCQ

T2: human ICOS ectodomain (residues 21-138), His-tagged, immobilised on Ni-NTA biosensors (human, UniProt Q9Y6W8 21-138)
T2 chain: T1 sequence with Q90N

T3: human ICOS-L ectodomain (residues 19-248), crystallised in complexes (human, UniProt O75144 19-248)
T3 construct: not shown: Venus (monomeric variant), C-terminal, cleaved; His6, C-terminal, cleaved
T3 sequence (looked up): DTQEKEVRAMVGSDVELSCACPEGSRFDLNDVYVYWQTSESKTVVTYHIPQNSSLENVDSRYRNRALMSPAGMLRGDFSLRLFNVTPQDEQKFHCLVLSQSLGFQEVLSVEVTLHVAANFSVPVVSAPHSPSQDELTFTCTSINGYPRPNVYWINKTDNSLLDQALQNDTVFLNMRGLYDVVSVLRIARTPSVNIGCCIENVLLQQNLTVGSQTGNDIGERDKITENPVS

T4: human ICOS ectodomain (residues 21-138), untagged, disulfide-linked homodimer (human, UniProt Q9Y6W8 21-138)
T4 chain: T1 sequence with Q90N

T5: human ICOS ectodomain N110Q (N110 glycan knock-out mutant), analyte (human, UniProt Q9Y6W8 21-138, N110Q)
T5 sequence: T1 sequence

T6: human ICOS-L ectodomain (residues 19-248), untagged monomer (human, UniProt O75144 19-248)
T6 construct: Residues of the TEV site probably remain at the C-terminus after cleavage; also called ICOS-L ectodomain monomer; CD275; source: HEK 293F, transiently transfected, purified (HisTrap Ni-NTA, TEV digestion, second Ni-NTA, Superdex 200); not shown: Venus (monomeric variant), C-terminal, cleaved; His6, C-terminal, cleaved
T6 sequence (looked up): T3 sequence (looked up)

T7: human ICOS-L ectodomain (residues 19-248), His-tagged, immobilised on Ni-NTA biosensors (human, UniProt O75144 19-248)
T7 construct: also called ICOS ligand; CD275; source: HEK 293F, transiently transfected, purified from the supernatant (HisTrap Ni-NTA); not shown: His6, C-terminal, kept
T7 sequence (looked up): T3 sequence (looked up)

B1: STIM003 Fab (purified, for BLI) (Fab, V domains shown)
VH: EVQLVESGGGVVRPGGSLRLSCVASGVTFDDYGMSWVRQAPGKGLEWVSGINWNGGDTDYSDSVKGRFTISRDNAKNSLYLQMNSLRAEDTALYYCARDFYGSGSYYHVPFDYWGQGILVTVSS
VL: EIVLTQSPGTLSLSPGERATLSCRASQSVSRSYLAWYQQKRGQAPRLLIYGASSRATGIPDRFSGDGSGTDFTLSISRLEPEDFAVYYCHQYDMSPFTFGPGTKVDIK
notes: Fab heavy chain of STIM003; Fab light chain (kappa) of STIM003; Kappa light chain (KappaSelect purification); also called anti-ICOS monoclonal antibody; source: HEK 293F, transiently co-transfected LC and HC, purified (KappaSelect, MonoS, Superdex 200)
B2: STIM003 Fab (co-expressed with ICOS, for the crystal structure) (Fab, V domains shown)
VH: B1 VH
VL: B1 VL
notes: as the heavy chain of m12; as the light chain (kappa) of m12; source: HEK 293S (Gnt I-/-), co-transfected with ICOS C136A C137A N23Q, complex purified
B3: human ICOS ectodomain (residues 21-129), crystallised with ICOS-L and VNAR (domain or fragment, UniProt Q9Y6W8 21-129, looked up)
chain: EINGSANYEMFIFHNGGVQILCKYPDIVQQFKMQLLKGGQILCDLTKTKGSGNTVSIKSLKFCHSQLSNNSVSFFLYNLDHSHANYYFCNLSIFDPPPFKVTLTGGYLH
modifications: N-linked glycan at N110 seen in the structure (two GlcNAc and three mannose residues)
notes: not shown: Venus (monomeric variant), C-terminal, cleaved; His6, C-terminal, cleaved
B4: prezalumab Fab (purified, for BLI) (Fab, V domains shown)
VH: EVQLVESGGGLVQPGGSLRLSCAASGFTFSSYWMSWVRQAPGKGLEWVAYIKQDGNEKYYVDSVKGRFTISRDNAKNSLYLQMNSLRAEDTAVYYCAREGILWFGDLPTFWGQGTLVTVSS
VL: DIQMTQSPSSLSASVGDRVTITCRASQGISNWLAWYQQKPEKAPKSLIYAASSLQSGVPSRFSGSGSGTDFTLTISSLQPEDFATYYCQQYDSYPRTFGQGTKVEIK
notes: Fab heavy chain of prezalumab; Fab light chain of prezalumab; Purified on KappaSelect; also called humanized monoclonal anti ICOS-L antibody; source: HEK 293F, transiently co-transfected LC and HC, purified (KappaSelect, MonoS, Superdex 200)
B5: prezalumab Fab (co-expressed with ICOS-L and VNAR, for the crystal structure) (Fab, V domains shown)
VH: B4 VH
VL: B4 VL
notes: as the heavy chain of m14; as the light chain of m14; source: HEK 293S (Gnt I-/-), co-transfected with ICOS-L and VNAR, complex purified
B6: human ICOS-L ectodomain (residues 19-248), His-tagged, immobilised on Ni-NTA biosensors (ligand)
chain: T3 sequence (looked up)
B7: human ICOS ectodomain (residues 21-138), His-tagged, immobilised on Ni-NTA biosensors (receptor, UniProt Q9Y6W8 21-138, looked up)
chain: T1 sequence with Q90N
notes: human ICOS ectodomain, UniProtKB Q9Y6W8, residues 21-138, followed by a TEV cleavage site; The His6 tag of the vector lies C-terminal of TEV site and Venus, so the His-tagged form used for loading is probably the undigested ICOS-TEV-Venus-His6 fusion; also called inducible T-cell co-stimulator; CD278; source: HEK 293F, transiently transfected, purified from the supernatant (HisTrap Ni-NTA); not …
B8: human ICOS ectodomain (residues 21-138), untagged, disulfide-linked homodimer (receptor, UniProt Q9Y6W8 21-138, looked up)
chain: T1 sequence with Q90N
notes: human ICOS ectodomain, UniProtKB Q9Y6W8, residues 21-138; Residues of the TEV site probably remain at the C-terminus after cleavage; also called ICOS WT; ICOS disulfide-linked homodimers; source: HEK 293F, transiently transfected, purified (HisTrap Ni-NTA, TEV digestion, second Ni-NTA, Superdex 200); not shown: Venus (monomeric variant), C-terminal, cleaved; His6, C-terminal, cleaved
B9: human ICOS ectodomain N110Q (N110 glycan knock-out mutant), analyte (receptor, UniProt Q9Y6W8 21-138, looked up)
chain: T1 sequence
notes: human ICOS ectodomain, UniProtKB Q9Y6W8, N110Q removes the N-linked glycosylation site; limits are those of the ectodomain construct of the methods; also called ICOS N110Q; ICOS N110 glycan knock-out mutant; source: HEK 293F, transiently transfected, purified (as the ICOS ectodomain); not shown: Venus (monomeric variant), C-terminal, cleaved; His6, C-terminal, cleaved

Experiment [1] has as its target T1, human ICOS ectodomain N110Q, …. Briefly: BLI. Background: Biolayer interferometry detects binding as a change in optical thickness at a sensor tip.
In experiment [2] the target is T2, human ICOS ectodomain (residues …). The experiment is described as follows: BLI.
Experiment [3] concerns the target T1, human ICOS ectodomain N110Q, …. Briefly: BLI. The source holds these as a separate data set.
Experiment [4] concerns the target T2, human ICOS ectodomain (residues …). Briefly: BLI.
Experiment [5] concerns the target T8, human ICOS ectodomain (residues 21-138), His-tagged, immobilised on Ni-NTA biosensors (human, UniProt Q9Y6W8).
T8 construct: human ICOS ectodomain, UniProtKB Q9Y6W8, residues 21-138, followed by a TEV cleavage site; The His6 tag of the vector lies C-terminal of TEV site and Venus, so the His-tagged form used for loading is probably the undigested ICOS-TEV-Venus-His6 fusion; also called inducible T-cell co-stimulator; CD278; source: HEK 293F, transiently transfected, purified from the supernatant (HisTrap Ni-NTA); not …
The experiment is described as follows: BLI; His-tagged ICOS or ICOS-L on Ni-NTA biosensors, Fabs as analytes (prezalumab 1:2 serial dilutions from 31 nM); PBS pH 7.4, 0.01% BSA, 0.002% Tween; 1:1 fit. The conditions noted are these: both partners purified.

For experiment [6], the target named is T9, human ICOS C136A C137A N23Q (residues 21-138), crystallised with STIM003 Fab (human, UniProt Q9Y6W8, C136A | C137A | N23Q).
T9 construct: human ICOS ectodomain, UniProtKB Q9Y6W8, residues 21-138 with C136A, C137A and N23Q; not shown: Venus (monomeric variant), C-terminal, cleaved; His6, C-terminal, cleaved
T9 sequence (Q9Y6W8 21-138 N23Q/C136A/C137A): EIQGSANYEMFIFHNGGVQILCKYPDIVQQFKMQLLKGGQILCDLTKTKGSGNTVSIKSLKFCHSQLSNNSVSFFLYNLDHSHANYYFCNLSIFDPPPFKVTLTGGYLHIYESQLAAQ
Briefly: crystal structure; ICOS C136A C137A N23Q/STIM003 Fab complex, co-expressed and co-purified, then incubated 1:5 with anti-kappa VHH and gel filtered, 2.38 A; 0.2 M di-sodium hydrogen phosphate, 20% PEG 3350. The conditions noted are these: both partners purified.

Experiment [7] concerns the target T3, human ICOS-L ectodomain (residues …). The experiment is described as follows: crystal structure; ICOS (21-129)/ICOS-L (19-248)/VNAR complex, co-expressed and co-purified, 3.3 A; 0.1 M HEPES pH 7.0, 30% Jeffamine ED-2001. As to conditions: both partners purified.
Experiment [8] concerns the target B6. The experiment is described as follows: BLI.
The target of experiment [9] is B6. Briefly: BLI.
The target in experiment [10] is T10, human ICOS-L ectodomain (residues 19-248), His-tagged, immobilised on Ni-NTA biosensors (human, UniProt O75144).
T10 construct: also called ICOS ligand; CD275; source: HEK 293F, transiently transfected, purified from the supernatant (HisTrap Ni-NTA); not shown: His6, C-terminal, kept
Briefly: BLI; His-tagged ICOS or ICOS-L on Ni-NTA biosensors, Fabs as analytes (prezalumab 1:2 serial dilutions from 31 nM); PBS pH 7.4, 0.01% BSA, 0.002% Tween; 1:1 fit. The conditions noted are these: both partners purified.

For experiment [11], the target named is T11, human ICOS-L ectodomain (residues 19-248), crystallised in complexes (human, UniProt O75144).
T11 construct: not shown: Venus (monomeric variant), C-terminal, cleaved; His6, C-terminal, cleaved
Briefly: crystal structure; ICOS-L/prezalumab Fab/VNAR complex, co-expressed and co-purified, 3.15 A; 0.2 M di-ammonium tartrate, 20% PEG 3350. The conditions noted are these: both partners purified.

Experiment [12] deals with T4, human ICOS ectodomain (residues …). Briefly: BLI; ICOS-L immobilized.
The target is the same in experiment [13]. The experiment is described as follows: BLI; ICOS-L immobilized.
In experiment [14] the target is T5, human ICOS ectodomain N110Q (N110 …). The experiment is described as follows: BLI.
The target is the same in experiment [15]. Briefly: BLI. The source holds these as a separate data set.
Experiment [16] concerns the target T6, human ICOS-L ectodomain (residues …). Briefly: BLI; His-tagged ICOS on Ni-NTA biosensors (0.8 nm), untagged ICOS-L as analyte, 1:2 serial dilutions from 500 nM; PBS pH 7.4, 0.01% BSA, 0.002% Tween; 180 s association and dissociation; 1:1 fit. The conditions noted are these: both partners purified.
Experiment [17] concerns the target T7, human ICOS-L ectodomain (residues …). The experiment is described as follows: BLI; His-tagged ICOS-L on Ni-NTA biosensors (0.8 nm), untagged ICOS (wild-type and mutants) as analyte, 1:2 serial dilutions from 125 nM; PBS pH 7.4, 0.01% BSA, 0.002% Tween; 1:1 fit; apparent constant (avidity of the ICOS homodimer). As to conditions: both partners purified.

Numbering of substitutions follows the chain as printed. Names and notes keep the numbering of the source.

For orientation: koff means the first-order rate constant of dissociation. Regarding B1, the Kd came to 1.8 nM in experiment [1] and 2 nM in [2]. Moreover, the off-rate constant (koff) was 0.001 s⁻¹ in experiment [3] and 0.00072 s⁻¹ in [4]. Also, the binding result in experiment [5] is given as “binds”.
For the molecule B2, the binding result in experiment [6] is on record as “binds”.
As usually defined, the stoichiometry N is the number of molecules, sites or subunits per partner or assembly. With B3, in experiment [7], the “stoichiometry N” value was found to be 1.
For the molecule B4, the Kd in [8] worked out at 5.5 nM. This molecule showed an off-rate (koff) in experiment [9] of 0.0045 s⁻¹. Moreover, the binding result in experiment [10] is recorded as “binds”.
As to B5, the binding result in [11] is “binds”.
For the molecule B6, the off-rate (koff) was found to be 0.0012 s⁻¹ in [12] and 0.00071 s⁻¹ in experiment [15]. Moreover, the Kd in experiment [13] was determined as 3 nM; in experiment [14] it was 0.7 nM.
Consider B7, for which, in [16], the Kd was 722 nM and the koff was 0.16 s⁻¹.
With B8, in [17], the Kd amounted to 10 nM.
As for B9, the “fold improvement in binding affinity against WT ICOS” value in experiment [17] is 4.3 fold.
